Biological target: CryIAb toxin of Bacillus thuringiensis (Bacillus thuringiensis, UniProt P0A370 29-607, 125I-labeled (probe in blots and in the cell binding assay; the unlabeled toxin was the competitor))

B1: Recombinant BT-R1 protein expressed from the BT-R1 cDNA in pcDNA3 in mammalian cells (receptor)
chain: QERCGYMTAIPRLPRPDNLPVLNFEGQTWSQRPLLPAPERDDLCMDAYHVITANLGTQVIYMDEEIEDEITIAILNYNGPSTPFIELPFLSGSYNLLMPVIRRVDNGEWHLIITQRQHYELPGMQQYMFNVRVDGQSLVAGVSLAIVNIDDNAPIIQNFEPCRVPELGEPGLTECTYQVSDADGRISTEFMTFRIDSVRGDEETFYIERTNIPNQWMWLNMTIGVNTSLNFVTSPLHIFSVTALDSLPNTHTVTMMVQVANVNSRPPRWLEIFAVQQFEEKSYQNFTVRAIDGDTEINMPINYRLITNEEDTFFSIEALPGGKSGAVFLVSPIDRDTLQREVFPLTIVAYKYDEEAFSTSTNVVIIVTDINDQRPEPIHKEYRLAIMEETPLTLNFDKEFGFHDKDLGQNAQYTVRLESVDPPGAAEAFYIAPEVGYQRQTFIMGTLNHSMLDYEVPEFQSITIRVVATDNNDTRHVGVALVHIDLINWNDEQPIFEHAVQTVTFDETEGEGFFVAKAVAHDRDIGDVVEHTLLGNAVNFLTIDKLTGDIRVSANDSFNYHRESELFVQVRATDTLGEPFHTATSQLVIRLNDINNTPPTLRLPRGSPQVEENVPDGHVITQELRATDPDTTADLRFEINWDTSFATKQGRQANPDEFRNCVEIETIFPEINNRGLAIGRVVAREIRHNVTIDYEEFEVLSLTVRVRDLNTVYGDDYDESMLTITIIDMNDNAPVWVEGTLEQNFRVREMSAGGLVVGSVRADDIDGPLYNQVRYTIFPREDTDKDLIMIDFLTGQISVNTSGAIDADTPPRFHLYYTVVASDRCSTEDPADCPPDPTYWETEGNITIHITDTNNKVPQAETTKFDTVVYIYENATHLDEVVTLIASDLDRDEIYHTVSYVINYAVNPRLMNFFSVNRETGLVYVDYETQGSGEVLDRDGDEPTHRIFFNLIDNFMGEGEGNRNQNDTEVLVILLDVNDNAPELPPPSELSWTISENLKQGVRLEPHIFAPDRDEPDTDNSRVGYEILNLSTERDIEVPELFVMIQIANVTGELETAMDLKGYWGTYAIHIRAFDHGIPQMSMNETYELIIHPFNYYAPEFVFPTNDAVIRLARERAVINGVLATVNGEFLERISATDPDGLHAGVVTFQVVGDEESQRYFQVVNDGENLGSLRLLQAVPEEIREFRITIRATDQGTDPGPLSTDMTFRVVFVPTQGEPRFASSEHAVAFIEKSAGMEESHQLPLAQDIKNHLCEDDCHSIYYRIIDGNSEGHFGLDPVRNRLFLKKELIREQSASHTLQVAASNSPDGGIPLPASILTVTVTVREADPRPVFVRELYTAGISTADSIGRELLRLHATQSEGSAITYAIDYDTMVVDPSLEAVRQSAFVLNAQTGVLTLNIQPTATMHGLFKFEVTATDTAGAQDRTDVTVYVVSSQNRVYFVFVNTLQQVEDNRDFIADTFSAGFNMTCNIDQVVPANDPVTGVALEHSTQMRGHFIRDNVPVLADEIEQIRSDLVLLSSIQTTLAARSLVLQDLLTNSSPDSAPDSSLTVYVLASLSAVLGFMCLVLLLTFIIRTRALNRRLEALSMTKYGSLDSGLNRAGIAAPGTNKHTVEGSNPIFNEAIKTPDLDAISEGSNDSDLIGIEDLPHFGNVFMDPEVNEKANGYPEVANHNNNFAFNPTPFSPEFVNGQFRKI
modifications: N-glycosylated (210 kD)
- Kd: 1.01 nM

From patent US20070031855A1 (UNIVERSITY OF WYOMING, published 2007)
